Experimental findings from paper PMC4117571 are described below.

This data set relates to hnRNP A1 (endogenous) ((SF268 cells)). The experiment in a line: pull-down, competition, immunoblot. The conditions noted are these: biotin-16-UTP incorporated; 5 mM HEPES pH 7.1, 40 mM KCl, 0.1 mM EDTA, 2 mM MgCl2, 2 mM DTT, RNasin, 0.25 mg/ml heparin; 200 ug SF268 extract, 3 ug RNA, 100 ul; 15 min 30 C, then beads …. Background: A western blot detects proteins with antibodies after separation by electrophoresis.

As for EV71 5'UTR, the binding signal (% reduction of bound hnRNP A1) came to 73. Regarding EV71 SL-II, the binding signal (% reduction of bound hnRNP A1) was determined as 80.
